Data from patent publication US7220569.

Assays:
[1] = tested on: rFactor X from furin deficient CHO-FD11 cells (CHO-FD11-rFX)
[2] = tested on: recombinant Factor X (rFX) from highly expressing CHO-rFX clones
[3] = tested on: Factor X analogue with the FXIa cleavage site Asp-Phe-Thr-Arg/Val (rFX^DFTR/V)
Factor X analogue with the FXIa cleavage site Asp-Phe-Thr-Arg/Val (rFX^DFTR/V), sequence (chain, as listed by the source, chain 1 of 2): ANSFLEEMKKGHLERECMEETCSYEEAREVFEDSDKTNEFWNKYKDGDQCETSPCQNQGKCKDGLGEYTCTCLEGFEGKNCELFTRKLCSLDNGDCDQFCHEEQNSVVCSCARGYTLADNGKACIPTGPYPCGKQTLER
Factor X analogue with the FXIa cleavage site Asp-Phe-Thr-Arg/Val (rFX^DFTR/V), sequence (chain, as listed by the source, chain 2 of 2): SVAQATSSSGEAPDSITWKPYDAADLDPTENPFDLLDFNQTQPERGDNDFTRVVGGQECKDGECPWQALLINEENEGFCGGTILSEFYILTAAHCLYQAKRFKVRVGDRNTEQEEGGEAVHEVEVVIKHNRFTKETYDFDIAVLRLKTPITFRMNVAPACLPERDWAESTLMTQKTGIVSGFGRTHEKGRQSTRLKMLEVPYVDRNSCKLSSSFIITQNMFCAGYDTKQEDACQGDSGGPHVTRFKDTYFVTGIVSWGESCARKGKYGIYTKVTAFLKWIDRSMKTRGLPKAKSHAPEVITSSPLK

recombinant Factor X (rFX) from highly expressing CHO-rFX clones, sequence (chain, as listed by the source): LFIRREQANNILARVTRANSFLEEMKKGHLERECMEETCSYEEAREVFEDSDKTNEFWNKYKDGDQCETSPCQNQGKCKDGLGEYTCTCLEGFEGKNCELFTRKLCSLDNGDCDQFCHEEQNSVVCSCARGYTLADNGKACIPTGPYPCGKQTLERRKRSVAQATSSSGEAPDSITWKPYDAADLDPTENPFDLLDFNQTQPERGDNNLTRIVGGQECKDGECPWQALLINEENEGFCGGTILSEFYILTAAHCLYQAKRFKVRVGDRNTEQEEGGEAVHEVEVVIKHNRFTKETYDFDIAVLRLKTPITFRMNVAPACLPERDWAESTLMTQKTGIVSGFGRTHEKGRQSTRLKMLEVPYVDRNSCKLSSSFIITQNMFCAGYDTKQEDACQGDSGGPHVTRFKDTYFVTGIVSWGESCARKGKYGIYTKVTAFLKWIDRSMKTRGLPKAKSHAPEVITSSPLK
rFactor X from furin deficient CHO-FD11 cells (CHO-FD11-rFX), sequence (chain, as listed by the source): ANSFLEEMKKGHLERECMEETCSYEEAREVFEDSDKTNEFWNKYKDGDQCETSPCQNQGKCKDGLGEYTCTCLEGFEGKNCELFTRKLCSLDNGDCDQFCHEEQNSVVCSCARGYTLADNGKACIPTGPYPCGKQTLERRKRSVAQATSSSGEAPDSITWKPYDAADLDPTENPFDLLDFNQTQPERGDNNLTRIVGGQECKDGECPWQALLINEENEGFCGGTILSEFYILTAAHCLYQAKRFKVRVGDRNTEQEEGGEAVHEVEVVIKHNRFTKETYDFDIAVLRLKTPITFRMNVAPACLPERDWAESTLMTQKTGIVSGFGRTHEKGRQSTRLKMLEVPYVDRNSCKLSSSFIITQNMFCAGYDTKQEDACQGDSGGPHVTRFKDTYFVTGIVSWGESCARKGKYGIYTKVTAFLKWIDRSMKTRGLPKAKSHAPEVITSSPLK

For “rfurin deltaTM6xHis (CHO-rfurin cell culture supernatant)”, the “N-termini of processing products after 12 hours at 37 C with CHO-rfurin supernatant (Edman analysis)” value [1] was “After incubation of rFX from CHO cells (c) and CHO-FD11 cells (e) in the presence of furin, only light and heavy chains having correct N-termini are found”, the “N-termini of processing products after 12 hours at 37 C with CHO-rfurin supernatant (Edman analysis)” value [2] was “After incubation of rFX from CHO cells (c) and CHO-FD11 cells (e) in the presence of furin, only light and heavy chains having correct N-termini are found” and the activity (mU), FX Coatest after RVV activation, incubation 0 days [2] was 853 mU. The activity (mU), FX Coatest after RVV activation, incubation 1 day [2] was 1020 mU, the activity (mU), FX Coatest after RVV activation, incubation 2 days [2] was 1100 mU and the activity (mU), FX Coatest after RVV activation, incubation 3 days [2] was 1140 mU. It also gave an activity (mU), FX Coatest after RVV activation, incubation 4 days [2] of 1200 mU, a functional portion of rFX (%), incubation 0 days [2] of 61% and a functional portion of rFX (%), incubation 1 day [2] of 73%. It also gave a functional portion of rFX (%), incubation 2 days [2] of 79%, a functional portion of rFX (%), incubation 3 days [2] of 81% and a functional portion of rFX (%), incubation 4 days [2] of 86%. For the same substance, the “processing of pro-Factor X on tentacle gel immobilized rfurin derivative (Western blot of the effluent)” value [2] was “Processing of pro-Factor X to double chain Factor X was detected in the effluent of the column” and the “processing of single chain and propeptide containing rFX (Western blot)” value [2] was “almost complete processing already after 2 hours of incubation at 37 °C”.

In the case of endogenous furin of CHO cells, the “processing of rFactor X precursor in furin containing versus furin deficient CHO clones (Western blot)” value [2] is reported as “rFactor X precursor is not processed in the furin deficient cells and only single chain Factor X precursor is present (FIG. 6); in contrast, rFactor X is completely processed by "normal" cells at modest expression”.

purified plasma FXIa was tested, and the “activation of rFX^DFTR/V to the 35 kD and 31 kD forms (Western blot)” value [3] was “protein bands of 35 kD and 31 kD rapidly appear after the addition of purified FXIa, but prior to the actual incubation of the cell sulture supernatant (FIG. 11, lane 3)”.
